Source: PMC6582406 (Nucleic Acids Research, 2019)

Target: the molecule itself
Experiment: SEC

B1: EBOV VP35 fused with maltose-binding protein at its N-terminal (MBP–VP35) (natural protein)
chain: MTTRTKGRGHTAATTQNDRMPGPELSGWISEQLMTGRIPVSDIFCDIENNPGLCYASQMQQTKPNPKTRNSQTQTDPICNHSFEEVVQTLASLATVVQQQTIASESLEQRITSLENGLKPVYDMAKTISSLNRVCAEMVAKYDLLVMTTGRATATAAATEAYWAEHGQPPPGPSLYEESAIRGKIESRDETVPQSVREAFNNLNSTTSLTEENFGKPDISAKDLRNIMYDHLPGFGTAFHQLVQVICKLGKDSNSLDIIHAEFQASLAEGDSPQCALIQITKRVPIFQDAAPPVIHIRSRGDIPRACQKSLRPVPPSPKIDRGWVCVFQLQDGKTLGLKI
binding result: binds
